The values that follow come from a protein production outcome set (Wang et al. 2014).

The data set can be described thus: label from the status in PepcDB records.
Take “MKTTPDILDQIRVHGADAYPEEGCGFLLGTVTDDGDNRVAALHRATNRRSEQRTRRYELTADDYRAADAAAQEQGLDVVGVYHSHPDHPARPSATDLEEATFPGFTYVIVSVRDGAPEALTAWALAPDRSEFHREDIVRPDPEAPLEHHHHHH”: the protein production result was “failed”.

On to “MIGLNTAAIYVLQTLGSLYLLIILLRFVLQLVRANFYNPLCQFIVRATQPLLKPLRRIIPSLFGLDMSSLVLAIIVQMILMALTLLLMFGTTGDPLHLLLWSIIGVTALFLKIFFFALIISVILSWVAPGSHNPGAELVNQICEPALAPFRKIVPNLGGLDISPILAFLVLKLLDMLVINNLAAMSNMPDVLRLLM”, for which the protein production result is “failed”.

As for “MPEEALKTYEELLELEKRIGNKREIGLTLANLAIIKDELGNVEEAIKLMEEARKIFEELKDENNYLISLIDLAHFKYELGEYEEAMKLIREVLRNPVDKEIEVNARLVESEIYAGERKYKEAAISLRNALQRSEDDEELFSLVFDSLTEFLEGLFNESRLEHHHHHH”, the protein production entry was “not failed”.

Consider “MNHTLQFPKAPEHLLQALNEVIPKCKLMAQQLPETAISLWLIPPVFPTERLDDDIIRRIWSDTPYWIFCWASGLAMAQWLLAEPHHVKDKVVLDFGAGSGVVAIAAKMAGAKRVICCDIDETSLNACRENALLNNVELEYLNDLYLSESVDILLAADVLYDQSNRFFLDEFLKFAPEVWVADSRVKNFSHPGYIKIDERSATTWPDLDEAKEFRNVSFYKTL”, for which the protein production entry is listed as “failed”.

“MRHLGLRNVISKLPAKINAAREFATSALVLIVFFGLLLILGRQFFRDSVVLEPISVPLHLEESGLNGGVAAQWLIDSIRTIQRNAASTKETKAIQATPKQINIEMPGVGFSLATIEQIIREALALPSPFIKGEIIKLGDSYQIRLRLPGAPYIHIEQPLGDKDVEKLIAKSAEKILLLKDPYIVAVDYYRKAEYKKAIEVINNMQPGADRLQSAYNELLLAAIATKQLEHEKASLHLKKADQLAPNLGVVKLNQAIQHALKKDPSTALSKYKEAKQLNLELQDDAFHSQILTELGRELVTDDSAEEKLALFRKAIDLAPENASAIIRLAEVLAHRQRPEENNEMLKLYEAAIGLVPNKPKYHFQYGKTLWEMGNKDKGCVQVKKAVELKPAMRVLANKYQCSK”: the protein production result is “failed”.

“MKHFDYSRGLKAPYSLQVIKSPKGKIVWYFAQPLSLAYLVMLFLGIVLTGIFWKFVPLPLIFGINLNLMIMLYFPNKVARWYTETEFEGKTGLAFLKDGFVYVKNYVLDNRSIISFERVKEIEEFSFKR”: the protein production result is on record as “failed”.

Take “SLRLHAGVWGLKVRYEGSFEVSKTPEEVFEFLTDPKRFSRAFPGFKSVEVEDGSFTIELRLSLGPLRGDARVRASFEDLEKPSKATVKGSGRGAGSTLDFTLRFAVEPSGGGSRVSWVFEGNVGGLAASMGGRVLDSLARRMINDVISGVKRELGEA”: the protein production result was “not failed”.

For “MNQAAQQSAPSRLRDRTLAAFTLMVSQPALAAIAALAALYALLAVVGGILTFSPVPFWDMWDGGLGFYVRQMTDVSQWWAQHNEHRIVLSRILFFLDYRYFDSNGAVLVVINYLLACSTFGLLAWCALQRDASRRRDGRMIAAFILCCALLWTQSNNLTWAFQSQFFLANLLPLLALVLLHASCRTRIRGNAIVFLAALTVAAMAAVSMANGVLAGGVVAAACLLGRQSWRRNLLAWAVAIAVPALYFHHYTAPAGHGSILASLRTEPLEVIKFFFAYIGSPFAHLDASGPLHLGWAILAGVVLLTAGAILAWRTIFKRHDTVDVDLVVTLFLGYLVASAFATAGSRALFGLDAAVASRYTTPGLLVLGCVLILASRNFFRDRALTMPYQIGLALMALAFLPSQLTATRPQPYLDFEWRFAALALELGVKDDKQIGWIFPDAAWAQKIAEPAANMGLGIFAKPGIYDAKLTLGGSYPTSSLQTCSLAGLENEAVDASTNDWIRLKGGLMNSILPRKISTVLLVDANNTIVGRGLLAEPKQDSPGAPFGAPFKAYLMGRAQPAVYKIVIPGFCTTTVAPKSQ”, the protein production result is “failed”.

For “MSDAPVCERNPFLGMWSMVTRKTASGASLGAGQAITPLEAMRCYTANPARAEGQAARKGTLSPGKLADLIVLDRDPCAVDPDEIRHTQVLATLVGGQATYRAAGAPLEHHHHHH”, the protein production result is listed as “failed”.

Turning to “MSEDLMDLSPEEGIERFLRHREPSVRESTMRNAKTRLRFFNEWCEERDIENLNNLTGRDLADFVAWRRGDIAALTLQKQLSTIREALRYWADIEGVDDGLAEKVHAPELPDGAESREVHLSADRAHQILDFLHDYRYASRDHVVFLILWKTAMRRSALRSLDVDDLRPDDYALVLEHRIDEGTKLKNGEDGERWVYLGPSDYQVVDDYLDNPDRYERTDDYGRKPLITSQHGRPAGDTIYKWVNKLTQPCVLNGCPHDADPSDPSTCEALGSRAAHSKCPSSRSPHGLRRGSITYHLNSDVSPEIVSERCDVSLEVLYEHYDVRTNQEKMAVRKKQLERI”, the protein production entry is reported as “failed”.

“MERIALPRRTLGARRREVPVTPDTLLPLLAVLPPLAYGLLALFCARAWFGRQRPGPGHTPPVTILKPVKGMDAESFENFASFCRQEYGGPWQMLFACASADDPVIPVIRRLMAEFPDRDIDLVVDGTIHGPNYKVSNLINAFPRARHDILIVCDSDIRVTSDYLGEVTAPFADPAVGLVTSLYRSPGVRGAATALEAMGFTVEMVPNVMVAQRLEGLSFALGASMAVRRTALESIGGFPALTHYLADDYQLGNKIHRAGWRLELSDCFVESVMHRENLTTVLSRQLRWCRTMRASRPGGYLGSGITQPVPLACLALLVSGCSAAGWGAVILLYLTRALVAVTFSRRYLRDGIFPRWLWLLPLRDILAFATWALSFAGNRVRWRGNLFRLLPGGKIVEIG”: the protein production result is “failed”.

Consider “MSLSLLVIGSLAFDDIETPFGRSDNTLGGSSTYIALSASYFTDEPIRMVGVVGSDFGKEHFDLLHAKNIDTRGIQVIEDGKTFRWAGRYHYDMNTRDTLDTQLNVFAEFDPHVPQYYRDSKFVCLGNIDPELQLKVLDQIDDPKLVVCDTMNFWIEGKPEELKKVLARVDVFIVNDSEARLLSGDPNLVKTARIIREMGPKTLIIKKGEHGALLFTDNGIFAAPAFPLESIYDPTGAGDTFAGGFIGHLARCGNTSEAEMRKAVLYGSAMASFCVEQFGPYRYNDLDLLEVDDRYQSFLELSRIEEGHHHHHH”, for which the protein production entry was “not failed”.

With “MTLTQLEIFALVAEMQGFTAAAARLGISQSGVSHAVRELERELGVELLQRRQGRVELTDIGRQLLPRASGMLGLAEAMRQEAADARGLRRGTLRIGSFGPTSSMRLLPALLARYRQQYPGIEVHIDEGPDEQVLQWLLERRVDIAFAVLPDPRFVCCPLVEDQMVAVLPAGHRLADRPRVTLAELCGEPFALSGAGSAELVMRLFQAARLQPNIRYRCGQLLSTLDTVARGDAVAIVAELSLPSRPHAEGYVGKPLQPAVRRQVGLALLDGDQASPAARAFLQIADRLRIEGGLAGLNARENGAA”, the protein production entry is “not failed”.

In the case of “MSGDMEATGWGYTHISVDSFCHKWTISNFSFCMDGIMETITSPKFSLKASDKVEWGLKVHPNGIDEESKNYLSVYLALLHCQKSPVWAKYEFWIINSQGEKYQSRKSTKVVSFHKNKYRGFKKFILRDFLFSNPHRLLPEDQLTLCCQVSIMGAFFKTPGQSITPAVPDPRHMMADDLGELWENSLCTDCCLLVAGQEFRAHKAILAARSPVFRAMFEHQMEERLTNRVDINGLDPKVFKEMMGFIYTGKAPHLHIHSMACDLLAAADRYGLEGLKVMCEDALCRNLSVENAAHTLILADLHNIEQLKTQALDFIALHASEVSENSEWKSMMESHPHLVAETFHSLASAQCFLEPSIKHLK”, the protein production result is reported as “failed”.

With “EHFNDMIEKRVKSEIRNQVDLKKPMVRISVAISGGKDSSVTLYLLHKILSKRRNVELTAFTVDEGISGYRPAGLESAIKLTKMLGVDHSIIRFQDSFGMTLDSIVGADASRIPCSYCGPLRRKLINEMAERQNADYVALGLNLDDYSQSILMNVAKGDYDRLLRMSPQKEAKDGLVRRIAPLRSVLEKEVVLYAVINGIPFDSSWC”, the protein production result is “failed”.

Regarding “MDDYSLDEFRRRWQEELAQAQAPKKRRRPEAAERRARRPEVGSGRSEQASGDPALAQGLLEGAGRPPAARATRAEGQDVASRSRSPLAREGAGGGEQLVDQLIRDLNEMNDVPFFDIQLPYELAINIFQYLDRKELGRCAQVSKTWKVIAEDEVLWYRLCQQEGHLPDSSISDYSCWKLIFQECRAKEHMLQTNWKNRKGAVSELEHVPDTVLCDVHSHDGVVIAGYTSGDVRVWDTRTWDYVAPFLESEDEEDEPGMQPNVSFVRINSSLAVAAYEDGFLNIWDLRTGKYPVHRFEHDARIQALALSQDDATVATASAFDVVMLSPNEEGYWQIAAEFEVPKLVQYLEIVPETRRYPVAVAAAGDLMYLLKAEDSARTILYAHGPPVTCLDVSANQVAFGVQGLGWVYEGSKILVYSLEAGRRLLKLGNVLRDFTCVNLSDSPPNLMVSGNMDGRVRIHDLRSGNIALSLSAHQLRVSAVQMDDWKIVSGGEEGLVSVWDYRMNQKLWEVYSGHPVQHISFSSHSLITANVPYQTVMRNADLDSFTTHRRHRGLIRAYEFAVDQLAFQSPLPVCRSSCDAMATHYYDLALAFPYNHV”, the protein production entry is listed as “failed”.

For the sequence “VFHRFNEPGSRSGYSLYVPEYYDPDREWPLVMALHGGSGHGRLFLWSWLRDARARGAIVVAPTATGRTWALMGEDVDSPNLARILDEVRGHWRIDPSRLLLTGLSDGGTFCYVSGLTSDSPFTHLAPIAASFHPLLAGAADSARLRGLPIQIVHGRHDWMFPVEVARQAHEALVSAGADVSYREIADLSHSYPREANVALLDWL”, the protein production entry is listed as “failed”.

Turning to “ASNSQLNAMAHQIQEMFPQVPYHLVLQDLQLTRSVEITTDNILEGRIQVPF”, the protein production result is given as “not failed”.

For “MKKSSILILIIICLVGCKKGSNETTITGEIKGLGTDTLYLYGMDELYDRIDTIYVENDKFSYTTSVDTITSAYLLLKNRIEYPVFLDKGNKIKIKGDTINLNFLTISGNIYNEEFTDFQKALEDPADPSEKAGEETVDKRITVEKANTAEEMAEEFILQHHSSYVSLYLLDKYFVQKETPDFSKIKKLVEVMTGVLQDKPYIERLNETITQAEKSEIGKYAPFFSLPNAKGEKITRSSDAFKQKSLLINFWASWNDSISQKQSNSELREIYKKYKKNKYIGMLGISLDVDKQQWKDAIKRDTLDWEQVCDFGGLNSEVAKQYSIYKIPANILLSSDGKILAKNLRGEELKKKIENIVEEATEKEKKNKQKK”, the protein production entry is “failed”.

Regarding “MSEKPWVSTQPLVTKRGLPLNIDRDIAYRPASAVSLSEVAQFITRETGLPVVVAPDALNPSILSSRPGNSGAAAAPPAVTMSNPDNLAALMPTGLAGSLPSGARSLESELLSGTPGLISGIKFSGPVSALLNQVTSRLGLSWHYDPQLQGARITYFDTRTFDVWAFGDDQVIESVVKSGLITSTGSGSNGSGGTSSGTGASGDSGSNQSTTVQIKTSLLSDIENNVKAMLSTQPAGRIFLSRSTGTLTVSDRPEVLNRIASYLQSTNRNITRQVLFNVKIFEVNFTDRDQTAVNWKAVYKSVSGRWGLSLANKVAGISTDAISGSVSILDTSSSPWAGSSAVIQALSEQGRISDVRSPSITTLNLQPAPIQIGNVKSYVASSSTTTTASVGSSTSLTPATITSGFNMMLLPKIIDRDNMLLMISISMSSKPTFTTFTSNGSSVQTADFDTKNAAPKVLLRSGQTLVLTGFEENTENADKTGVGDASFFGLGGSRTRSSLEHHHHHH”, the protein production entry is given as “failed”.

As to “MGSCMKWDYGEMEDFSVSASGLFITNEGNFQYSNATLSYYDPATCEVENEVFYRANGFKLGDVAQSMVIRDGIGWIVVNNSHVIFAIDINTFKEVGRITGFTSPRYIHFLSDEKAYVTQIWDYRIFIINPKTYEITGYIECPDMDMESGSTEQMVQYGKYVYVNCWSYQNRILKIDTETDKVVDELTIGIQPTSLVMDKYNKMWTITDGGYEGSPYGYEAPSLYRIDAETFTVEKQFKFKLGDWPSEVQLNGTRDTLYWINNDIWRMPVEADRVPVRPFLEFRDTKYYGLTVNPNNGEVYVADAIDYQQQGIVYRYSPQGKLIDEFYVGIIPGAFCWKLEHHHHHH”, the protein production result is “failed”.
